Source: patent US20200138870A1, “RECREATION OF PANCREATIC NICHE ALLOWS FOR NOVEL METHODS FOR HUMAN, MATURE BETA DERIVATION FROM PLURIPOTENT STEM CELLS” (Baylor College of Medicine, priority 2016, published 2020)
Where “and” joins values, the source holds several entries; their conditions need not be identical. Equal values may be shown once.

What was measured:
Assay type in all cases: cell-based, human
hESC-derived EPs [1] = experiment: RNA-sequencing of EPs treated with WNT5A
Method: Total RNA was extracted as described elsewhere herein and RNA quality was assessed using 2100 Bioanalyzer (Agilent Genomics). Samples with RIN≥9 preceded to library preparation using TruSeq stranded mRNA Library Prep Kit LT (Illumina) according to the manufacturer's protocol. Library concentration was determined by qPCR (KAPA Library Quantification Kit) to pool equal amounts of libraries with different adaptor indexes. Sequencing was performed using NextSeq500 (Illumina).
After preliminary analyses, showing a significant Pearson Correlation Coeficient for gene expression, two biological replicates were concatenated and analysed as single samples. This step yielded four samples, two for each treatment (5 days and 12h), as well as untreated samples. All reads were considered single-end in the bioinformatic analyses.
For Venn diagram, TFactS analysis and Gene enrichment analysis (GSEA), sequencing reads were first aligned using TopHat and the gene differential expression were assembled and analyzed using Cufflinks. […] To predict which transcription factors are responsible to the gene changes in the sequencing result, TFactS analysis was performed by inputting up and down regulation gene lists. […] For GSEA (http://software.broadinstitute.org/gsea/index.jsp), all input files were generated through GenePattern and the analysis was performed based on the instruction from Broad institute GSEA user guide with the following parameter: phenotype labels as 5dUT versus 5dWNT5A, 1000 genes set of permutations, weighted enrichment statistic, gene sets between 15 to 500, with log 2 ratio of class as metric for ranking genes. […] Data GEO submission number: GSE 90785.

hESC-derived EPs [2] = experiment: qPCR-based gene expression analysis of WNT5A-treated EPs
Method: Total RNA was isolated using TRIzol (Thermo Fisher Scientific) according to the manufacturer's protocol. DNAase (Qiagen) treatment was performed to remove genomic DNA. cDNA was synthesized using iScript (Biorad) by using […] of RNA. For qPCR, KAPA SYBR FAST (Kapa Biosystems) and Connect CFX light cycler (Biorad) for PCR reaction (<40 cycles were used). Primers were designed using qPrimerDepot in such way that the PCR product spans across exons junction. Primer specificity was checked using CFX manager software v3.1 […] and PCR product electrophoresis. Threshold data were analyzed by CFX manager software v3.1 using Comparative Ct relative quantitation method with TBP as internal control.

[3] = system: canonical β-catenin-dependent pathway; experiment: TOPFLASH reporter assay; settings: 100 or 500 ng/ml WNT5A, 3 days
Method: For TOPFLASH reporter assay, 80,000 EPs were transfected with 0.5 μg of TOPFLASH (Addgene #12456) or FOPFLASH (Addgene #12457) from Dr. Randall Moon, together with 0.25 μg pRLTK using Lipofectamine 2000 (Invitrogen) for 48h. Cells were then treated with CHIR99021 (as positive control), DMSO (mock control) or WNT5A for 3 days before collecting the samples. Luciferase assay was performed using Dual luciferase assay system (Promega) which Luciferase and Renilla signal were measured by TD20/20 Luminometer (Turner designs).

c-JUN = experiment: p-c-JUN immunofluorescence in EPs; settings: WNT5A short-term treatment (24h in FIG. 6G)
Method: Cells were incubated with 5% donkey serum (Jackson ImmunoResearch Laboratories) in PBST (PBS+0.1% Triton-X) for 30 min to avoid nonspecific binding of the antibody and to permeabilize the cells. Primary antibodies, diluted in 5% donkey serum in PBST, were then added and incubated at 4° C. overnight with shaking. After primary antibody incubation, cells were washed 3 times with PBST and secondary antibodies conjugated with Alexa-Fluor Dyes (Jackson ImmunoResearch Laboratories) and diluted in 5% donkey serum in PBST were added to the cells for 30 min at RT. Then, cells were thrice washed with PBST and nuclei were stained with Dapi (Roche Diagnostics). For imaging, Leica DMI6000 or confocal Leica TCS SPE was used. Images were initially processed by LAS X software and then further analyzed and quantified using ImageJ software (NIH, W Rasband, http://rsb.info.nih.gov/ij) using cell counter plug-in. Typically, at least 5 randomly selected images were counted per condition.

3D-EPs = experiment: WNT5A treatment in 3D SC-β cell differentiation protocol (Pagliuca et al., 2014); settings: 4 days of treatment, compared to INS upregulation at 12-day in original protocol
Method: SC-β cells were generated using the protocol as previously described (Pagliuca et al., 2014). WNT5A were introduced into the differentiation from EP stage (EN in the original paper) together with T3, ALK5i in CMRL media for the first two days and then change into T3, ALK5i in CMRL media from the third day. Samples were collected at the 4th day and 12th day counting from EP stage and were fixed with 4% PFA and thrice washed with PBS for 10 min. For whole-mount staining, samples were first blocked with 5% donkey serum in PBST overnight and incubated with antibodies overnight as described above.

[4] = 5-day long treatment with WNT5A

B1: WNT5A: secreted growth factor from the human pancreatic niche (R&D), used at 100 or 500 ng/ml (protein)
chain: IIGAQPLCSQLAGLSQGQKKLCHLYQDHMQYIGEGAKTGIKECQYQFRHRRWNCSTVDNTSVFGRVMQIGSRETAFTYAVSAAGVVNAMSRACREGELSTCGCSRAARPKDLPRDWLWGGCGDNIDYGYRFAKEFVDARERERIHAKGSYESARILMNLHNNEAGRRTVYNLADVACKCHGVSGSCSLKTCWLQLADFRKVGDALKEKYDSAAAMRLNSRGKLVQVNSRFNSPTTQDLVYIDPSPDYCVRNESTGSLGTQGRLCNKTSEGMDGCELMCCGRGYDQFKTVQTERCHCKFHWCCYVKCKKCTEIVDQFVCK
downregulation of GCG (hESC-derived EPs [1]; 5-day WNT5A treatment): 5 fold | downregulation of MAFB (hESC-derived EPs [1]; 5-day WNT5A treatment): 3 fold | downregulation of NGN3 (hESC-derived EPs [1]; 5-day WNT5A treatment): 2 fold | up-regulation of GCK (hESC-derived EPs [1]; 5-day WNT5A treatment): 9 fold | up-regulation of INS (hESC-derived EPs [1]; 5-day WNT5A treatment): 81 fold | up-regulation of NEUROD1 (hESC-derived EPs [1]; 5-day WNT5A treatment): 56 fold | up-regulation of PCSK2 (hESC-derived EPs [1]; 5-day WNT5A treatment): 7 fold | up-regulation of SYT4 (hESC-derived EPs [1]; 5-day WNT5A treatment): 16 fold | expression of BMP3, 4, and 6, GDF5 and 9 (in words) (hESC-derived EPs [1]; [4]): downregulated | expression of DCN and BMP antagonist BMPER (in words) (hESC-derived EPs [1]; [4]): upregulated | GCG expression compared to untreated cells (in words) (hESC-derived EPs [2]; 5-day WNT5A-treated cells): decreased | INS, CHGA, ONECUT1 and PCSK2 expression compared to untreated cells (in words) (hESC-derived EPs [2]; 5-day WNT5A-treated cells): increased | BMP3, BMP4 and BMP6 expression by qPCR (in words) (hESC-derived EPs [2]; 5 day-WNT5A treatment): downregulation | BMP inhibitor BMPER expression by qPCR (in words) (hESC-derived EPs [2]; 5 day-WNT5A treatment): upregulation | activity of β-catenin-dependent pathway, TOPFLASH (in words) [3]: did not significantly activate or antagonize | increase in p-c-JUN (number of c-JUN+ cells) compared to untreated control (c-JUN): 9 fold and 6 fold | number of INS+ cells in independent 3D protocol (in words) (3D-EPs): increasing the number of INS+ cells
